Assay results as given in patent publication US11306331B2, “Processes for the production of hydroxycinnamic acids using polypeptides having tyrosine ammonia lyase activity” (CysBio ApS, priority 2014, dated 2022).

Assays:
[1] = test system: L. lactis NZ9000ΔldhΔldhB; experiment: Specific pHCA and CA productivity of L. lactis strains expressing TAL/PAL enzymes in CDM; assay type: cell-based, Lactococcus lactis
From the text: The synthetic RsXALI (protein GI 129592) and RmXALI (protein GI 126464011) genes, codon optimized for Lactococcus lactis (GeneArt), were cloned into the nisin inducible expression vector pNZ8048 (Kuipers et al., 1998) as follows: RsXALI (SEQ ID NO: 56) and RmXALI (SEQ ID NO: 57) genes and the vector were PCR amplified using the primers listed in Table 7, and were assembled in a single-tube isothermal reaction using the Gibson Assembly Master Mix (New England Biolabs). Reaction products were ethanol-precipitated and suspended in double distilled water before transformation into L. lactis by electroporation as described by Holo and Nes (1995). The synthetic genes encoding SeSam8, R_XAL, HaXAL1 and FjXAL described in a previous example above were amplified by PCR using the primer pairs listed in Table 1, digested with specific restriction enzymes, and cloned in-between the NcoI and XbaI restriction sites of pNZ8048. The plasmids were obtained and maintained in L. lactis NZ9000 (Kuipers et al., 1998) and the gene sequences of the different constructs were verified by sequencing.
To assess pHCA production, TAL-expression vectors were transformed into a strain derived from NZ9000, but with deletion of the genes Idh and dhB (NZ9000ΔldhΔldhB). A control strain was also constructed by transformation of NZ9000ΔldhΔldhB with empty expression vector pNZ8048.
For molecular biology procedures, L. lactis strains were cultivated as batch cultures (flasks) without aeration in M17 medium (Difco™, USA) supplemented with 0.5% glucose (w/v) at 30° C. To assess pHCA production, strains were grown as static cultures in chemically defined medium (CDM; Poolman and Konings, 1988) containing 1% glucose (wt/vol) without pH control (initial pH 6.5 or 7.0) and supplemented with 1.7 or 3.7 mM L-tyrosine. Plasmid selection was achieved by addition of 5 μg mL^−1 chloramphenicol to the growth medium. Growth was monitored by measuring OD600. For heterologous expression of cloned tyrosine ammonia lyases, L. lactis strains were grown in CDM and nisin (1.5 μg L^−1) was added at an OD600 of 0.3-0.4. Samples (1 mL) of cultures were collected at different points during growth; centrifuged (16,100×g, 10 min, 4° C.) and the supernatants stored at −20° C. until analysis by HPLC as described in a previous example above. […] The first six columns are results from media containing 1.7 mM tyrosine. The seventh and ninth columns represent samples from strains grown in media containing 3.7 mM tyrosine, and the eighth and ninth columns are data from media with 68.5 mM 3-(N-morpholino)propanesulfonic acid (MOPS) and initial pH adjusted to 7.0 rather than 6.5.

[2] = substrate: N[C@@H](Cc1ccccc1)C(=O)O; experiment: In vitro kinetics of purified His-tagged FjXAL (tyrosine/phenylalanine ammonia lyase activity, absorbance at 315/295 nm); assay type: biochemical, Flavobacterium johnsoniae; conditions: other: FjXAL, 30° C, 1.56 μM to 200 μM tyrosine or 193 μM to 25 mM phenylalanine, pH 7.5
Procedure: (§1) The tyrosine ammonia lyase activity may for instance be determined in accordance to the following method: Enzymatic assays are performed in 200 μL volumes in wells in a UV transparent 96-well plate, by following the increase in absorbance at 315 nm (pHCA) using spectrophotometry or HPLC with UV detection. The reaction mixtures contain 2 μg of purified protein and are initiated by adding 1 mM tyrosine or 6 mM after equilibration to 30° C. The enzymatic activity is calculated as U/g, where U is defined as μmol substrate converted per minute. Negative controls contain no purified protein. Kinetic constants Km and vmax are determined from assays containing 1.56 μM to 200 μM tyrosine. See also Kyndt et al. (2002).
(§2) Four of the enzymes were further purified by His-tag purification as follows. A DNA linker (5′ phosphorylated oligonucleotides CBJP559 and CBJP560, Table 5) was inserted in place of the sequence between the NdeI and BgIII site in plasmid pCDFDuet-1. This would result in the addition of the amino acids MAHHHHHHENLYFQ (SEQ ID NO: 11) to the N-terminal end of the polypeptides. The resulting plasmid was amplified with primers CBJP575 and CBJP576 (table 5) and the genes were amplified and combined using the Gibson reaction (New England Biolabs). The PCR amplification used the same reverse primers as in example 1, but the forward primers matching the His-tag site of the linker (Table 5). Plasmids carrying the genes (e.g. FjXAL, FIG. 4) were transformed into electrocompetent E. coli BL21(DE3)pLysS cells (Life Technologies) and selected on LB plates containing 50 ug/mL streptomycin.
(§3) Strains expressing His-tagged versions of the enzymes were grown in LB media overnight at 37° C. and diluted into fresh LB media with 1 mM IPTG and growth was propagated overnight (approximately 18 h) at 30° C. Cells were harvested by centrifugation at 8000 rpm for 8 minutes, and disrupted by shearing into a buffer (50 mM Tris-HCl, 10 mM imidazole, 500 mM NaCl, 10% glycerol, pH 7.5). The homogenate was clarified by centrifugation at 10000 g for 10 min at 4° C., and the supernatant was loaded onto Ni2+-NTA resin column on an Äkta Pure system connected to a F9-C fraction collector (GE). Finally the fractions containing the purified polypeptide was dialyzed overnight against a buffer containing 50 mM Tris-HCl pH 7.5, 150 mM NaCl and 10% glycerol, flash-frozen in liquid nitrogen and stored at −80° C.
(§4) Enzymatic assays were performed in 200 μL volumes in wells in a UV transparent 96-well plate, by following the increase in absorbance at 315 nm (pHCA) or 295 nm (CA). […] The enzymatic activity was calculated as U/g, where U is defined as μmol substrate converted per minute.

[3] = substrate: N[C@@H](Cc1ccc(O)cc1)C(=O)O; experiment: as above; assay type: biochemical, Flavobacterium johnsoniae; conditions: other: FjXAL, 30° C, 1.56 μM to 200 μM tyrosine or 193 μM to 25 mM phenylalanine, pH 7.5
Procedure: as §1, §2, §3, §4

B1: Flavobacterium johnsoniae FjXAL tyrosine ammonia lyase (Protein GI 146298870), SEQ ID NO: 1, His-tagged (N-terminal tag SEQ ID NO: 11) (Flavobacterium … (protein)
chain: MNTINEYLSLEEFEAIIFGNQKVTISDVVVNRVNESFNFLKEFSGNKVIYGVNTGFGPMAQYRIKESDQIQLQYNLIRSHSSGTGKPLSPVCAKAAILARLNTLSLGNSGVHPSVINLMSELINKDITPLIFEHGGVGASGDLVQLSHLALVLIGEGEVFYKGERRPTPEVFEIEGLKPIQVEIREGLALINGTSVMTGIGVVNVYHAKKLLDWSLKSSCAINELVQAYDDHFSAELNQTKRHKGQQEIALKMRQNLSDSTLIRKREDHLYSGENTEEIFKEKVQEYYSLRCVPQILGPVLETINNVASILEDEFNSANDNPIIDVKNQHVYHGGNFHGDYISLEMDKLKIVITKLTMLAERQLNYLLNSKINELLPPFVNLGTLGFNFGMQGVQFTATSTTAESQMLSNPMYVHSIPNNNDNQDIVSMGTNSAVITSKVIENAFEVLAIEMITIVQAIDYLGQKDKISSVSKKWYDEIRNIIPTFKEDQVMYPFVQKVKDHLINN
increase in specific production of pHCA over RmXALI, the second-best enzyme ([1]; CDM, 1.7 mM tyrosine): five-fold increase
Specific production of pHCA ([1]; CDM, 1.7 mM tyrosine, initial pH 6.5): 15 μM OD600^−1
specific productivity of pHCA ([1]; tyrosine increased from 1.7 mM to 3.7 mM and/or pH increased from 6.5 to 7.0): 24 μMD600^−1
Km [2]: 6.6 mM
kcat [2]: 0.00817 s⁻¹
kcat/Km [2]: 1.23 M⁻¹ s⁻¹
Km [3]: 0.0057 mM
